Data reported in patent publication US20240409647A1 (SINOMAB BIOSCIENCE, published 2024).

Tests used:
[1] = target: T1, human TSLP (R&D systems) (human, UniProt Q969D9 29-159); assay: BLI (Octet RED96), binder captured via anti-human Fab CH1, TSLP in solution
T1 construct: also called thymic stromal lymphopoietin
Description: Biosensors immobilized with irrelevant antibody (SM03, anti-human CD22 chimeric IgG1 antibody, SinoMab BioScience Limited, 20 μg/mL) were used as control reference.

[2] = target: T2, human IL-17 receptor subunit D (human, UniProt Q8NFM7 28-299, limits assumed); assay: ELISA, coated receptor; SM17 at 0.0032 µg/mL; well 1
T2 construct: also called IL17RD; hIL 17RD
T2 sequence (looked up): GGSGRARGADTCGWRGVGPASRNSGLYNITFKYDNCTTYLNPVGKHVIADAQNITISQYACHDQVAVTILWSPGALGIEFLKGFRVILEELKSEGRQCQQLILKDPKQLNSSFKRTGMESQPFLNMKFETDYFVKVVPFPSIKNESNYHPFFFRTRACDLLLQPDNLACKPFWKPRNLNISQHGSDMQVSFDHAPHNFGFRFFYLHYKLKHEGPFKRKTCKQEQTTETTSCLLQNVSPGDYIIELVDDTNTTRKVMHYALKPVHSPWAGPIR

[3] = target: T3, human IL-17RB protein (recombinant, R&D systems) (human); assay: as above
T3 construct: Bought protein; also called hIL17RB
T3 sequence (Q9NRM6 whole entry, looked up): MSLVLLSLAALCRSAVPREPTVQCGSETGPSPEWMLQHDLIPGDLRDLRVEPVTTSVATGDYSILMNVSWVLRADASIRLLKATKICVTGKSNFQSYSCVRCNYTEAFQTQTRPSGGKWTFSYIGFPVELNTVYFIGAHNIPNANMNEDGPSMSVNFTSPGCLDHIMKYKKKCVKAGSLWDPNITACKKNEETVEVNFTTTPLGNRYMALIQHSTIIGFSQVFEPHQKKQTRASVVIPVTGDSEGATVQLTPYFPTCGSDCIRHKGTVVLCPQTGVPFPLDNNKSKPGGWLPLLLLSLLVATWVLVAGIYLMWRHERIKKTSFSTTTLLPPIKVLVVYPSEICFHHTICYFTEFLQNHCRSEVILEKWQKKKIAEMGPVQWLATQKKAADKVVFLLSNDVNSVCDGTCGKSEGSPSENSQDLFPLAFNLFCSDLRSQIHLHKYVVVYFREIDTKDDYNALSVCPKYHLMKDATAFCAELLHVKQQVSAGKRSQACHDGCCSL

[4] = target: T4, human IL-17 receptor subunit E (human, UniProt Q8NFR9 24-454, limits assumed); assay: as above
T4 construct: also called hIL17RE
T4 sequence (looked up): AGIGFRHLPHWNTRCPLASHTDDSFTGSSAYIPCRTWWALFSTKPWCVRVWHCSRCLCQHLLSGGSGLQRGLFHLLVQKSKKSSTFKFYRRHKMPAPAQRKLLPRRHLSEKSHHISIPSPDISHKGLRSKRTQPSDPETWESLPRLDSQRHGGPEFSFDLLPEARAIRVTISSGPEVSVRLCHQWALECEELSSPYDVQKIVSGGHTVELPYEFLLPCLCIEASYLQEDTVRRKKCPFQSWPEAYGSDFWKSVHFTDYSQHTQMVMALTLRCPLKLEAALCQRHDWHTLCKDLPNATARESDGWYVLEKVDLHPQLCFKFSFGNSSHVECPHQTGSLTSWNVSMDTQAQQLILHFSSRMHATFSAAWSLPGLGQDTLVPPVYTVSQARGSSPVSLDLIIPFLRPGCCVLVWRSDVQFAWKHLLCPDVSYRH

[5] = target: T5, human IL-17 receptor subunit A (human, UniProt Q96F46 33-320); assay: as above
T5 construct: also called IL17RA; hIL17RA

[6] = target: T6, human IL-17 receptor subunit C (human, UniProt Q8NAC3-2 21-467, limits assumed); assay: as above
T6 construct: also called IL17RC; hIL17RC
T6 sequence (looked up): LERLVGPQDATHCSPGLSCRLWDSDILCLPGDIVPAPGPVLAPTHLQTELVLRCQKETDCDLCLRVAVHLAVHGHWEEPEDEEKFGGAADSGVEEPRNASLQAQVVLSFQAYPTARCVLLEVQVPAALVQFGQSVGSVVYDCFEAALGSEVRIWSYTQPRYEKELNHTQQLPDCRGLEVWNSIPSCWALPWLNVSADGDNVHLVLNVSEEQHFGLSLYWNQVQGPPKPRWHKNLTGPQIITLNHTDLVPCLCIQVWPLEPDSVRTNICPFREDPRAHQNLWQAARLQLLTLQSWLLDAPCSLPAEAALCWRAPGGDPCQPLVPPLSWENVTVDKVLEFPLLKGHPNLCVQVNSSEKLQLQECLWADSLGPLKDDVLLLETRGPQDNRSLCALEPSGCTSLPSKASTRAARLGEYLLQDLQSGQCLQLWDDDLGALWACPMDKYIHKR

[7] = target: T2, human IL-17 receptor subunit D; assay: ELISA, coated receptor; SM17 at 0.4 µg/mL; well 2
[8] = target: T3, human IL-17RB protein (recombinant, R&D …); assay: ELISA, coated receptor; SM17 at 0.4 µg/mL; well 2
[9] = target: T4, human IL-17 receptor subunit E; assay: ELISA, coated receptor; SM17 at 0.4 µg/mL; well 2
[10] = target: T5, human IL-17 receptor subunit A; assay: ELISA, coated receptor; SM17 at 0.4 µg/mL; well 2
[11] = target: T6, human IL-17 receptor subunit C; assay: ELISA, coated receptor; SM17 at 0.4 µg/mL; well 2
[12] = target: T3, human IL-17RB protein (recombinant, R&D …); assay: ELISA, coated receptor; SM17 at 0.016 µg/mL; well 1
[13] = target: T4, human IL-17 receptor subunit E; assay: as above
[14] = target: T5, human IL-17 receptor subunit A; assay: as above

B1: SM17 (antibody, human IgG4 S228P, kappa, V domains shown)
VH: QVQLVQSGAEVKKPGASVKVSCKASGYTFISYWMNWVRQAPGQGLEWMGRIDPYDSEIQYNQKFKDRVTMTRDTSISTAYMELSRLRSDDTAVYYCARSGGFDWFAYWGQGTLVTVSS
VL: DIQMTQSPSSLSASVGDRVTITCRASENINSNLAWYQQKPGKAPKLLLYDVTNLADGVPSRFSGSGSGTDYTLTISSLQPEDFATYYCQHFWGPPYTFGGGTKVEIKR
notes: other paragraphs and claim 15 call the same entries VH and VL; also called humanized anti-IL17RB monoclonal antibody
B1 was tested, and the Kd [1] was 100 nM, the koff [1] was 0.001 s⁻¹ and the “OD 450 nm Absorption” value [2] was 0.04 OD450. For the same binder, the “OD 450 nm Absorption” value [3] was 0.16 OD450, the “OD 450 nm Absorption” value [4] was -0.01 OD450 and the “OD 450 nm Absorption” value [5] was 0.2 OD450. The “OD 450 nm Absorption” value [6] was 0.03 OD450, the “OD 450 nm Absorption” value [7] was 0.08 OD450 and the “OD 450 nm Absorption” value [8] was 1.31 OD450. For the same binder, the “OD 450 nm Absorption” value [9] was 0.05 OD450, the “OD 450 nm Absorption” value [10] was 0.22 OD450 and the “OD 450 nm Absorption” value [11] was 0.18 OD450. For the same binder, the “OD 450 nm Absorption” value [12] was 0.35 OD450, the “OD 450 nm Absorption” value [13] was 0 OD450 and the “OD 450 nm Absorption” value [14] was 0.01 OD450.
